Measurements reported in paper PMC4187731, “WWP2-WWP1 Ubiquitin Ligase Complex Coordinated by PPM1G Maintains the Balance between Cellular p73 and ΔNp73 Levels” (Molecular and Cellular Biology, 2014).

B1: GST-p73 (natural protein, UniProt O15350 1-636, looked up)
chain: MAQSTATSPDGGTTFEHLWSSLEPDSTYFDLPQSSRGNNEVVGGTDSSMDVFHLEGMTTSVMAQFNLLSSTMDQMSSRAASASPYTPEHAASVPTHSPYAQPSSTFDTMSPAPVIPSNTDYPGPHHFEVTFQQSSTAKSATWTYSPLLKKLYCQIAKTCPIQIKVSTPPPPGTAIRAMPVYKKAEHVTDVVKRCPNHELGRDFNEGQSAPASHLIRVEGNNLSQYVDDPVTGRQSVVVPYEPPQVGTEFTTILYNFMCNSSCVGGMNRRPILIIITLEMRDGQVLGRRSFEGRICACPGRDRKADEDHYREQQALNESSAKNGAASKRAFKQSPPAVPALGAGVKKRRHGDEDTYYLQVRGRENFEILMKLKESLELMELVPQPLVDSYRQQQQLLQRPSHLQPPSYGPVLSPMNKVHGGMNKLPSVNQLVGQPPPHSSAATPNLGPVGPGMLNNHGHAVPANGEMSSSHSAQSMVSGSHCTPPPPYHADPSLVSFLTGLGCPNCIEYFTSQGLQSIYHLQNLTIEDLGALKIPEQYRMTIWRGLQDLKQGHDYSTAQQLLRSSNAATISIGGSGELQRQRVMEAVHFRVRHTITIPNRGGPGGGPDEWADFGFDLPDCKARKQPIKEEFTEAEIH
notes: also called glutathione S-transferase (GST)–p73
B2: GST-ΔNp73 (natural protein, UniProt O15350-8 1-587, looked up)
chain: MLYVGDPARHLATAQFNLLSSTMDQMSSRAASASPYTPEHAASVPTHSPYAQPSSTFDTMSPAPVIPSNTDYPGPHHFEVTFQQSSTAKSATWTYSPLLKKLYCQIAKTCPIQIKVSTPPPPGTAIRAMPVYKKAEHVTDVVKRCPNHELGRDFNEGQSAPASHLIRVEGNNLSQYVDDPVTGRQSVVVPYEPPQVGTEFTTILYNFMCNSSCVGGMNRRPILIIITLEMRDGQVLGRRSFEGRICACPGRDRKADEDHYREQQALNESSAKNGAASKRAFKQSPPAVPALGAGVKKRRHGDEDTYYLQVRGRENFEILMKLKESLELMELVPQPLVDSYRQQQQLLQRPSHLQPPSYGPVLSPMNKVHGGMNKLPSVNQLVGQPPPHSSAATPNLGPVGPGMLNNHGHAVPANGEMSSSHSAQSMVSGSHCTPPPPYHADPSLVSFLTGLGCPNCIEYFTSQGLQSIYHLQNLTIEDLGALKIPEQYRMTIWRGLQDLKQGHDYSTAQQLLRSSNAATISIGGSGELQRQRVMEAVHFRVRHTITIPNRGGPGGGPDEWADFGFDLPDCKARKQPIKEEFTEAEIH

Target: T1, MBP-WWP2 (UniProt O00308 1-870)
T1 construct: WWP2; also called bacterially purified WWP2; source: bacterially expressed; bacterially purified (methods, results) or bacterial cell lysate
Test: pull-down; GST, GST-p73 or GST-ΔNp73 on glutathione-Sepharose beads incubated with MBP-WWP2 for 1 h at 4°C; immunoblot with MBP antibody
Conditions: both partners purified

T1 sequence (O00308 whole entry): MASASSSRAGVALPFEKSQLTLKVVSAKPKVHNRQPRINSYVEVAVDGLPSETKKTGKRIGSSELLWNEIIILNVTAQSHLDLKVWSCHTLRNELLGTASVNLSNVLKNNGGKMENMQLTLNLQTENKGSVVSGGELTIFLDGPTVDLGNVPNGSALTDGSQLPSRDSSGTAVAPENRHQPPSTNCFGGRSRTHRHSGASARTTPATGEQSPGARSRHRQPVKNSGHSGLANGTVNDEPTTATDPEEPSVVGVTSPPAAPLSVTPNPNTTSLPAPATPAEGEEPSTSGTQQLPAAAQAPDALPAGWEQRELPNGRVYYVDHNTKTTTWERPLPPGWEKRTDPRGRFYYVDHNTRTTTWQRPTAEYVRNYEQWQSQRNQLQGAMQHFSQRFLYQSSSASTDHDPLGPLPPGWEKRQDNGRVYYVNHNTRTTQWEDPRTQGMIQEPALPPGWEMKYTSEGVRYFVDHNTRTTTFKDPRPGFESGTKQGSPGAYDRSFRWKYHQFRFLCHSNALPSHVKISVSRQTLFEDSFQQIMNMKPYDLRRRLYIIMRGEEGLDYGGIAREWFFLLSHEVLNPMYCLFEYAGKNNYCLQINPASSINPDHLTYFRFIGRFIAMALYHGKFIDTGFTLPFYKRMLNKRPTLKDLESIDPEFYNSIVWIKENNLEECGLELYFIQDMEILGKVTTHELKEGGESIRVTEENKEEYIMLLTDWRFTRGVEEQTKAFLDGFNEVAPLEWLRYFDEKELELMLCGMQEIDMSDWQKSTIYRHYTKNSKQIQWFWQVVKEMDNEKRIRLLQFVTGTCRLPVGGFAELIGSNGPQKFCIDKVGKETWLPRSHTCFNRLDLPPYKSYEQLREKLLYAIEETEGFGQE

Row | Binder | binding result
1 | B1 | binds
2 | B2 | binds
